Measurements published in patent US20220411487A1 (Regeneron, published 2022).

T1: full length human TMPRSS6 on HEK293 cells (HEK293/hTMPRSS6) (human, UniProt Q8IU80 10-811)
T1 construct: whole, on cells
T1 sequence (looked up): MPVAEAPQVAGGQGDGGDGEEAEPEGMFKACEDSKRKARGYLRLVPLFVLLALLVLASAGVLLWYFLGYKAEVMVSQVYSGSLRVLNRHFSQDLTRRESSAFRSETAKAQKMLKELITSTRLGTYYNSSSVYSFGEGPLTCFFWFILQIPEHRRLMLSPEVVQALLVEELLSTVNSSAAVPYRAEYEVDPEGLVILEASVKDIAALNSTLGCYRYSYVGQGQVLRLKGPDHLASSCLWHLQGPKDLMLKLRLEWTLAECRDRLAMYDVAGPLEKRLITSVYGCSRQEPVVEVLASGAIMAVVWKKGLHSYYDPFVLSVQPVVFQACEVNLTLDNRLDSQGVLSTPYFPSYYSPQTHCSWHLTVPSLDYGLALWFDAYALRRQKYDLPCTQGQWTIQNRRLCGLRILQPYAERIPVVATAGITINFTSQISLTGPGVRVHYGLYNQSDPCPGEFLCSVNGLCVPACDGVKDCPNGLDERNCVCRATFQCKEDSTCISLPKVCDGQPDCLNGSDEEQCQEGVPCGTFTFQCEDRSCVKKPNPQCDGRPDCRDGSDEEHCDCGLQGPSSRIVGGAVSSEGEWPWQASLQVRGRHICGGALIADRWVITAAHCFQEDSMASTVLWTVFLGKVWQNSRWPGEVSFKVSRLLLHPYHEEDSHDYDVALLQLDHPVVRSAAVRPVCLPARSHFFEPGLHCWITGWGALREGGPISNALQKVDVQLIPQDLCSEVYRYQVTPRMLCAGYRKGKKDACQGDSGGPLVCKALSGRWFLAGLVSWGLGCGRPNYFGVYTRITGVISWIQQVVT

T2: full length cynomolgous monkey TMPRSS6 on HEK293 cells (HEK293/mfTMPRSS6) (cynomolgous monkey/Macaca fascicularis, UniProt Q8IU80 10-811 (human entry))
T2 chain: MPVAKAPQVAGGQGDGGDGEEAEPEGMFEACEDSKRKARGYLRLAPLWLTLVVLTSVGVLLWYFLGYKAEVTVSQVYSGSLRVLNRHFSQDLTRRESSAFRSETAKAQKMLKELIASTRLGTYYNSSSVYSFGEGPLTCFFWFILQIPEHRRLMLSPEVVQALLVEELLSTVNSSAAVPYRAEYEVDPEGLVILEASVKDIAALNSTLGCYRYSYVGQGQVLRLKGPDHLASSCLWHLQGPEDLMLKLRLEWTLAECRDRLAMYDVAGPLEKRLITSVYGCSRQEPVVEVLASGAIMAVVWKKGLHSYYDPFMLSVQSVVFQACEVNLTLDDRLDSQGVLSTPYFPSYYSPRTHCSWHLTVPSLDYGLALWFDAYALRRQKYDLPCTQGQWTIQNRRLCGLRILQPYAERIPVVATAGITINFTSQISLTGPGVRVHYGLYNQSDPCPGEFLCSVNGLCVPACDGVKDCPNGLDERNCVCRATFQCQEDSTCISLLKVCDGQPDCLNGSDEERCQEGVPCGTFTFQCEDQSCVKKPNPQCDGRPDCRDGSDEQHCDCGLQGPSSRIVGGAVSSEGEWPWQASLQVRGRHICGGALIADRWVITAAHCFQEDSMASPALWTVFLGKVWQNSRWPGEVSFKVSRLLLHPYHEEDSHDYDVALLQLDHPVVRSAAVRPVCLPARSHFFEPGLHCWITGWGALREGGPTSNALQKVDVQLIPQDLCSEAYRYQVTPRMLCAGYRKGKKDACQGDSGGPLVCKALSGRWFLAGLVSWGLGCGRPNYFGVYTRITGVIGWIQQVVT

T3: extracellular domain of cynomolgous monkey TMPRSS6 (V673M) with N-terminal 8xHistidine, CHO conditioned media (cynomolgous monkey, UniProt Q8IU80 77-811 (human entry))
T3 chain: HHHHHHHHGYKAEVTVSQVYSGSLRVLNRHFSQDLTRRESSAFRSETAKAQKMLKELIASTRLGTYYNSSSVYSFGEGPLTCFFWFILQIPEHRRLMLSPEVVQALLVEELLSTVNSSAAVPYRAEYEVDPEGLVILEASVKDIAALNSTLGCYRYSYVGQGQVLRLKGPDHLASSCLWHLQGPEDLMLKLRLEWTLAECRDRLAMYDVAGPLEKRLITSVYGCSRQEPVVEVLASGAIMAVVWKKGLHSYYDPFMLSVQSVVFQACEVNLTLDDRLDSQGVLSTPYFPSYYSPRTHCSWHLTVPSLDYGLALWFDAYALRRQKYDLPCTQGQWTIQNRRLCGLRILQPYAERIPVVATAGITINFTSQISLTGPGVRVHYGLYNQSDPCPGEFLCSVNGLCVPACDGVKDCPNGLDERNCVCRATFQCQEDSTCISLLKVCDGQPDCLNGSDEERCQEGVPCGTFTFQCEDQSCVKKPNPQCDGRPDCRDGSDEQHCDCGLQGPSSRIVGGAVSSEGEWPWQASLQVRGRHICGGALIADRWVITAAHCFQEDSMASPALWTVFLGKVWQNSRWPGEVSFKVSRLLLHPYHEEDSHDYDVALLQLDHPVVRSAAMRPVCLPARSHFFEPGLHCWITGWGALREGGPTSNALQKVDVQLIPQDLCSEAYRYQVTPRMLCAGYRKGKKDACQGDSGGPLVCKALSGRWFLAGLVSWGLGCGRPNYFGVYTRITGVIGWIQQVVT

B1: REGN7969 (antibody, human IgG4 S228P, kappa, V domains shown)
VH: QVQLVESGGGVVQPGRSLRLSCAASGFTFNNYGMHWVRQAPGKGLEWVAIISYDGSNEYYSDSVKGRFTISRDNSKNTLYLQMNSLRAEDTAVYYCARDQDYGGNLFHYWGQGTLVTVSS
VL: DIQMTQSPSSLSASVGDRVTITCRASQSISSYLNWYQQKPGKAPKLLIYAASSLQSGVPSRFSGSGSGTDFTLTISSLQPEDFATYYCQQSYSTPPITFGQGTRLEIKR
notes: fully human; human IgG4 Fc with hinge S108P; also called mAb37746
B2: REGN7971 (antibody, human IgG4 S228P, kappa, V domains shown)
VH: QVQLVESGGGVVQPGRSLRLSCAASGFTFSTYGMHWVRQAPGKGLEWVAIISYDGSNDYYLDSVKGRFTISRDNSKNTLYLQMNNLRAEDTAVYYCAKDQGYGGNLFASWGQGTLVTVSS
VL: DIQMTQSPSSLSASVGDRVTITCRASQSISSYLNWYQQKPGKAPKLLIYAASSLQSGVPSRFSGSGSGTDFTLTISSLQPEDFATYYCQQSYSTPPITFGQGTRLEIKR
notes: fully human; human IgG4 Fc with hinge S108P; also called mAb37763
B3: REGN7974 (antibody, human IgG4 S228P, kappa, V domains shown)
VH: EVQLVESGGGLVQPGRSLRLSCIASGFNFGDYGMSWVRQAPGKGLEWVGFIRSKAYGGTTEYAASVKGRFTISRDDSKSIAYLQMNSLKTEDAAMYYCSRDYYDILTGYYGDYWGQGTLVTVSS
VL: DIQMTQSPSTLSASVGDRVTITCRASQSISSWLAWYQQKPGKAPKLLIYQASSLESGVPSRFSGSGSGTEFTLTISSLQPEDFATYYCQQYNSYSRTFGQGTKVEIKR
notes: fully human; human IgG4 Fc with hinge S108P; also called mAb41422
B4: REGN7977 (antibody, V domains shown)
VH: EVQLVESGGGLVKPGGSLRVSCAASGVTFSNVWMSWVRQVPGKGLEWVGRIKSKTDGGTTDYAAPVKGRFTISKDDSKNTLFLQMNSLKTEDTAVYYCTTETGDFWSGYYPRFQHWGQGTLVTVSS
VL: DIQMTQSPSSLSASVGDRVTITCRASQYISTYLNWYQQKPGKAPSLLIYAASSLQSGVPSRFSGSGSGTDFTLTISSLQPEDFASYSCQQSYSTPPYTFGQGTKLEIKR
notes: fully human; human IgG4 Fc with hinge S108P; also called mAb41465
B5: REGN7999 (antibody, human IgG4 S228P, kappa, V domains shown)
VH: EVQLVESGGGLVQPGGSLRLSCAASGFTFSSYAMTWVRQAPGKGLEWVSAISGSDTSTYYADSVKGRFTISRDNSKNTLFLQMNSLRAEDTAVYYCAKHQDYDFSYYYSAMDVWGQGTTVTVSS
VL: DIQMTQSPSSLSASVGDRVIITCRASQDFNSWLAWYQQKPGKAPKLLIYAASSLQSGVPSRFSGSGSGTDFTLTISSLQPEDFATYYCQQTDSFPFTFGPGTKVDIKR
notes: fully human; human IgG4 Fc with hinge S108P; also called mAb41450
B6: REGN8023 (antibody, human IgG4 S228P, kappa, V domains shown)
VH: EVQLVESGGGLVKPGGSLRISCAASGFIFVDYAMHWVRQAPGKGLEWVSGISWNSGSIGYADSVKGRFTISRDNAKKSLYLQMSGLRPEDTALYYCVKSGFYYVRSYFDNWGQGTLVTVSS
VL: DIVMTQSPLSLPVTPGEPASISCRSSQSLLDSDDGNTYLDWYLRKPGQSPQLLIYTLSYRASGVPDRFSGSGSGTDFTLKISRVEADDVGVYYCMQRIEFPLTFGGGTKVEIKR
notes: fully human; human IgG4 Fc with hinge S108P; also called mAb37699

How the values were obtained:
[1] = target: T1, full length human TMPRSS6 on HEK293 …; assay: flow cytometry, HEK293 cells expressing target
Protocol: (§1) To assess the binding of anti-TMPRSS6 antibodies of the present disclosure to the receptor expressed on the cell surface, antibodies (including an IgG subclass control) were serially diluted in assay buffer (PBS without Ca⁺⁺ and Mg⁺⁺ containing 2% FBS) from 375 nM to 22.9 pM (plus a sample containing assay buffer alone without test molecule) and incubated with 0.5×10⁶ cells/well at 4° C. for 30 minutes in assay buffer. […] Cells were fixed using BD CytoFix™ (Becton Dickinson, #554655) and analyzed on either the IQue® or IQue®Plus Flow Cytometers (Intellicyt®). Unstained and secondary antibody alone controls were also tested for all cell lines. The results were analyzed using ForeCyt® (IntelliCyt®) software to determine the geometric means of fluorescence for viable cells and binding ratio was calculated by normalizing the geometric mean value of the test condition by the geometric mean value of the corresponding unstained cells.

[2] = target: T2, full length cynomolgous monkey TMPRSS6 …; assay: flow cytometry, HEK293 cells expressing target
Protocol: as §1

[3] = target: T3, extracellular domain of cynomolgous …; assay: cell-based or functional assay
[4] = target: extracellular domain of Human TMPRSS6 with N-terminal 8xHistidine, CHO conditioned media (human, UniProt Q8IU80 68-802, limits assumed); assay: cell-based or functional assay
Chain of extracellular domain of Human TMPRSS6 with N-terminal 8xHistidine, CHO conditioned media (Q8IU80 other isoform, or with tags, fused parts or gaps limits assumed): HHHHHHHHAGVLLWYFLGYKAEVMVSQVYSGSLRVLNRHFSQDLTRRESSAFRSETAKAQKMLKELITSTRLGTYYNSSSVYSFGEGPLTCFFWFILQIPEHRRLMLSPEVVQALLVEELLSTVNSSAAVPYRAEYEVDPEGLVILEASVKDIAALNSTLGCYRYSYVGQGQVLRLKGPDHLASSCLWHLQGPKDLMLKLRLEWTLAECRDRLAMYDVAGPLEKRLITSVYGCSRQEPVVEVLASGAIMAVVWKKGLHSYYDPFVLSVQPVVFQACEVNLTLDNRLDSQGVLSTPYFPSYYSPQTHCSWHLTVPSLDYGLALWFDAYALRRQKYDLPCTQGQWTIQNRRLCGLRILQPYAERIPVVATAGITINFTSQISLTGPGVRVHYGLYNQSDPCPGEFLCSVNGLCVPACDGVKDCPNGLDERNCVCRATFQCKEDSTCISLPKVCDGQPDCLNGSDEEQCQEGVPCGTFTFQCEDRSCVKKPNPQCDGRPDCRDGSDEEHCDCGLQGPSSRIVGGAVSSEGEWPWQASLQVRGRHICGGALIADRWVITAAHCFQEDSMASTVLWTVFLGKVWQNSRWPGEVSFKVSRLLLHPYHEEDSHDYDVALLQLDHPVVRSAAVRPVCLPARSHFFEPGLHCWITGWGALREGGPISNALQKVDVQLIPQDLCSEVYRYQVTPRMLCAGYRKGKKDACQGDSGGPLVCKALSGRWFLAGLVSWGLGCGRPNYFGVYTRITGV

Row | EC50 [1] [nM] | Max. Fold Binding [1] | EC50 [2] [nM] | Max. Fold Binding [2] | % inhibition of enzymatic activity, CM bioassay [3] [%] | IC50, CM bioassay [3] [nM] | % inhibition of enzymatic activity, CM bioassay [4] [%] | IC50, CM bioassay [4] [nM] | Binder
1 | 0.67 | 52 fold over unstained control | 1.2 | 50 fold over unstained control | 66 | > 50 | 71 | > 10 | B1
2 | 0.97 | 66 fold over unstained control | 1.5 | 75 fold over unstained control | 68 | > 50 | 65 | > 10 | B2
3 | 2.4 | 54 fold over unstained control | 3.6 | 50 fold over unstained control | 69 | > 50 | 85 | 400 | B3
4 | 1.9 | 69 fold over unstained control | 2.4 | 78 fold over unstained control | 89 | 50 | 94 | 23 | B4
5 | 2.2 | 50 fold over unstained control | 2 | 79 fold over unstained control | 98 | 1.7 | 98 | 3 | B5
6 | 0.7 | 47 fold over unstained control | 0.94 | 52 fold over unstained control | 98 | 0.74 | 98 | 0.71 | B6
